The values below come from patent US20250011363A1, “OPTIMIZED SHORTENED PEPTIDE THAT BINDS TO ACETYLCHOLINE RECEPTOR, AND USE THEREOF” (SKINMED CO., LTD., priority 2021, published 2025).

The test has as its target acetylcholine receptor. Briefly: SPR, AchR on chip, peptide 10 uM. Background: SPR reads the build-up and loss of mass on a sensor chip optically.

KRVRR [5mer-200] displayed a Binding affinity (RU) of 55 RU.
The same measure for KQVRK [5mer-223]: 61 RU; for KVLCR [5mer-230]: 67 RU; for KQRYK [5mer-525]: 51 RU.
The same measure for KGLLK [5mer-231]: 60 RU.
In the case of KLQRK [5mer-501] it was 78 RU.
In the case of KWVRR [5mer-216], the Binding affinity (RU) amounted to 56 RU.
In the case of RRICR [5mer-524] it was 83 RU; in that of KRQQK [5mer-225], 51 RU.
In the case of RLVYR [5mer-522] it was 78 RU.
The same measure for KSLQK [5mer-500]: 63 RU; for RGQRK [5mer-515]: 56 RU; for RRYTR [5mer-226]: 60 RU.
Regarding KWYTR [5mer-232], the Binding affinity (RU) was determined as 71 RU.
RWRRR [5mer-530] displayed a Binding affinity (RU) of 80 RU.
In the case of KLLLK [5mer-514] it was 52 RU; in that of KGLQK [5mer-508], 67 RU.
As to RWIYR [5mer-201], the Binding affinity (RU) was found to be 62 RU.
In turn, KWYRR [5mer-202] showed a Binding affinity (RU) of 65 RU.
The same measure for KRILR [5mer-220]: 81 RU; for RVYYR [5mer-518]: 87 RU.
As to KLQLR [5mer-206], the Binding affinity (RU) turned out to be 57 RU.
The same measure for RVYYK [5mer-233]: 84 RU.
Take KQICK [5mer-532]: the Binding affinity (RU) was 75 RU.
In the case of RVQSR [5mer-529] it was 84 RU.
The same measure for KLICR [5mer-208]: 80 RU.
In the case of KQVRR [5mer-207] it was 72 RU; in that of RLYSK [5mer-519], 72 RU; in that of KLQRR [5mer-217], 72 RU.
KRVSK [5mer-503]: the Binding affinity (RU) was 61 RU.
In the case of KSLSR [5mer-511] it was 56 RU.
The molecule KRFRK [5mer-521] displayed a Binding affinity (RU) of 78 RU.
Molecule RGRLR [5mer-506] displayed a Binding affinity (RU) of 51 RU.
In the case of KWIRK [5mer-301] it was 64 RU.
The same measure for RRQLR [5mer-534]: 50 RU; for RGRTR [5mer-221]: 58 RU.
In the case of KQYTR [5mer-219] it was 55 RU.
As to RRQQR [5mer-227], the Binding affinity (RU) was found to be 84 RU.
RVQRK [5mer-509]: the Binding affinity (RU) was 61 RU.
Molecule KQIQR [5mer-504] showed a Binding affinity (RU) of 72 RU.
The same measure for RQIYR [5mer-505]: 71 RU.
The same measure for RQLTR [5mer-203]: 78 RU; for KRFLK [5mer-228]: 53 RU; for KWQTR [5mer-516]: 83 RU.
The same measure for RQFQR [5mer-204]: 84 RU; for RVLLR [5mer-528]: 50 RU.
KQQYK [5mer-212] returned a Binding affinity (RU) of 64 RU.
In the case of RVLLK [5mer-520] it was 86 RU; in that of RWYYR [5mer-205], 75 RU.
In the case of RLQRR [5mer-224] it was 67 RU; in that of KGLTR [5mer-229], 84 RU; in that of RWYYK [5mer-513], 83 RU.
The molecule RLYYR [5mer-211] returned a Binding affinity (RU) of 73 RU.
In the case of KGYTR [5mer-517] it was 70 RU; in that of KQFQK [5mer-523], 84 RU; in that of RQYTK [5mer-213], 83 RU.
Regarding RQYRR [5mer-215], the Binding affinity (RU) amounted to 79 RU.
In the case of KQFSR [5mer-526] it was 54 RU; in that of RRISR [5mer-502], 84 RU; in that of KWLLR [5mer-222], 86 RU.
The molecule KVYYR [5mer-210] came in with a Binding affinity (RU) of 67 RU.
Take RLVYK [5mer-533]: the Binding affinity (RU) was found to be 84 RU.
The same measure for KWVQK [5mer-507]: 84 RU; for RQYCR [5mer-234]: 62 RU; for RQLSK [5mer-510]: 71 RU.
Consider KVQYK [5mer-218], for which the Binding affinity (RU) turned out to be 80 RU.
The molecule KQQCK [5mer-214] displayed a Binding affinity (RU) of 79 RU.
In the case of RVQCK [5mer-1] it was 54 RU.
The same measure for RGVRR [5mer-209]: 78 RU; for KRQSR [5mer-531]: 65 RU; for KSVQR [5mer-527]: 70 RU.
For RLYLK [5mer-512], the Binding affinity (RU) is 70 RU.
